B1: Emerin (Homo sapiens), P50402 (parent)
chain: MDNYADLSDTELTTLLRRYNIPHGPVVGSTRRLYEKKIFEYETQRRRLSPPSSSAASSYSFSDLNSTRGDADMYDLPKKEDALLYQSKGYNDDYYEESYFTTRTYGEPESAGPSRAVRQSVTSFPDADAFHHQVHDDDLLSSSEEECKDRERPMYGRDSAYQSITHYRPVSASRSSLDLSYYPTSSSTSFMSSSSSSSSWLTRRAIRPENRAPGAGLGQDRQVPLWGQLLLFLVFVIVLFFIYHFMQAEEGNPF
partner: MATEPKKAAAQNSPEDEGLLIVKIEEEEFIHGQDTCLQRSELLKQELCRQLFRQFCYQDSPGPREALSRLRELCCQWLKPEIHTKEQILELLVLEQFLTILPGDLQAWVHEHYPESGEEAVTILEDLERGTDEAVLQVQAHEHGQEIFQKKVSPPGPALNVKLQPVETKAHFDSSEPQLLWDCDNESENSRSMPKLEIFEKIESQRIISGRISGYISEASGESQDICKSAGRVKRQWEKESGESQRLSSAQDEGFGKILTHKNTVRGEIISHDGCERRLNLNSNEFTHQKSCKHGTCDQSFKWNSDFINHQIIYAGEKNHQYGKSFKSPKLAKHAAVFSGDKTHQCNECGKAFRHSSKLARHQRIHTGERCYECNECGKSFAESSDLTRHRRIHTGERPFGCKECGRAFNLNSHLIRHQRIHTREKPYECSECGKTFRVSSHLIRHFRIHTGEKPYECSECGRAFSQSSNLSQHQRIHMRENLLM
B2: Inactive peptidyl-prolyl cis-trans isomerase FKBP6 (Homo sapiens), O75344 (parent)
chain: MGGSALNQGVLEGDDAPGQSLYERLSQRMLDISGDRGVLKDVIREGAGDLVAPDASVLVKYSGYLEHMDRPFDSNYFRKTPRLMKLGEDITLWGMELGLLSMRRGELARFLFKPNYAYGTLGCPPLIPPNTTVLFEIELLDFLDCAESDKFCALSAEQQDQFPLQKVLKVAATEREFGNYLFRQNRFYDAKVRYKRALLLLRRRSAPPEEQHLVEAAKLPVLLNLSFTYLKLDRPTIALCYGEQALIIDQKNAKALFRCGQACLLLTEYQKARDFLVRAQKEQPFNHDINNELKKLASCYRDYVDKEKEMWHRMFAPCGDGSTAGES
partner: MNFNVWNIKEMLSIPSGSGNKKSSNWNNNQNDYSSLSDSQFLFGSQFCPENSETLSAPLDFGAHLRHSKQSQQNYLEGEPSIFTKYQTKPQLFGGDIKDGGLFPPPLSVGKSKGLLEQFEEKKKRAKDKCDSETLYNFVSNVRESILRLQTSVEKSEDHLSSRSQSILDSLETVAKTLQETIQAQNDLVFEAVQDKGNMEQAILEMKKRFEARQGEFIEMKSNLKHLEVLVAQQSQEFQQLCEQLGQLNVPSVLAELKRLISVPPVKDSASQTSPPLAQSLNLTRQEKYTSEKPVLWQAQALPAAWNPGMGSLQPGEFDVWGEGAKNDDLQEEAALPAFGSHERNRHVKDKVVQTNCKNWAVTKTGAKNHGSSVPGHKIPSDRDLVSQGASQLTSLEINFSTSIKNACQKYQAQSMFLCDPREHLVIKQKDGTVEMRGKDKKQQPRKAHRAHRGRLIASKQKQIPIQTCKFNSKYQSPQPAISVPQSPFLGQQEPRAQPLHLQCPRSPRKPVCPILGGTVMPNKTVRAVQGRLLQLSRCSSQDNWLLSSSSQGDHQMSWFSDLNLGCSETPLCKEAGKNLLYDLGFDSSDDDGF
B3: U4/U6 small nuclear ribonucleoprotein Prp31 (Homo sapiens), Q8WWY3 (parent)
chain: MSLADELLADLEEAAEEEEGGSYGEEEEEPAIEDVQEETQLDLSGDSVKTIAKLWDSKMFAEIMMKIEEYISKQAKASEVMGPVEAAPEYRVIVDANNLTVEIENELNIIHKFIRDKYSKRFPELESLVPNALDYIRTVKELGNSLDKCKNNENLQQILTNATIMVVSVTASTTQGQQLSEEELERLEEACDMALELNASKHRIYEYVESRMSFIAPNLSIIIGASTAAKIMGVAGGLTNLSKMPACNIMLLGAQRKTLSGFSSTSVLPHTGYIYHSDIVQSLPPDLRRKAARLVAAKCTLAARVDSFHESTEGKVGYELKDEIERKFDKWQEPPPVKQVKPLPAPLDGQRKKRGGRRYRKMKERLGLTEIRKQANRMSFGEIEEDAYQEDLGFSLGHLGKSGSGRVRQTQVNEATKARISKTLQRTLQKQSVVYGGKSTIRDRSSGTASSVAFTPLQGLEIVNPQAAEKKVAEANQKYFSSMAEFLKVKGEKSGLMST
partner: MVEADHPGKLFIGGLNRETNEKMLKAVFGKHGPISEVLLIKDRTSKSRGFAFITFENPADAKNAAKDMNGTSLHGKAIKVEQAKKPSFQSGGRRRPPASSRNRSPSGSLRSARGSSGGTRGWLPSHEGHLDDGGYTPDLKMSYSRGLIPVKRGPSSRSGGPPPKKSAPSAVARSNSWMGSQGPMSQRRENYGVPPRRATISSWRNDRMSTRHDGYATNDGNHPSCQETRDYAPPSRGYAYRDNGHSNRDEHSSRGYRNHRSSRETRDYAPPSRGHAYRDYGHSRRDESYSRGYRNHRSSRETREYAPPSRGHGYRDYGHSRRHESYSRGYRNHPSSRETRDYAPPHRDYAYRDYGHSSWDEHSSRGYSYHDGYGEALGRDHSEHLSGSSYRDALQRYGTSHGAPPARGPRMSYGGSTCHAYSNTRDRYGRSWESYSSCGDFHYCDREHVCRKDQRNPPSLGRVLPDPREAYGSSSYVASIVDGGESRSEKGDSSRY
B4: ATP synthase mitochondrial F1 complex assembly factor 2 (Homo sapiens), Q8N5M1 (parent)
chain: MWRSCLRLRDGGRRLLNRPAGGPSASMSPGPTIPSPARAYAPPTERKRFYQNVSITQGEGGFEINLDHRKLKTPQAKLFTVPSEALAIAVATEWDSQQDTIKYYTMHLTTLCNTSLDNPTQRNKDQLIRAAVKFLDTDTICYRVEEPETLVELQRNEWDPIIEWAEKRYGVEISSSTSIMGPSIPAKTREVLVSHLASYNTWALQGIEFVAAQLKSMVLTLGLIDLRLTVEQAVLLSRLEEEYQIQKWGNIEWAHDYELQELRARTAAGTLFIHLCSESTTVKHKLLKE
partner: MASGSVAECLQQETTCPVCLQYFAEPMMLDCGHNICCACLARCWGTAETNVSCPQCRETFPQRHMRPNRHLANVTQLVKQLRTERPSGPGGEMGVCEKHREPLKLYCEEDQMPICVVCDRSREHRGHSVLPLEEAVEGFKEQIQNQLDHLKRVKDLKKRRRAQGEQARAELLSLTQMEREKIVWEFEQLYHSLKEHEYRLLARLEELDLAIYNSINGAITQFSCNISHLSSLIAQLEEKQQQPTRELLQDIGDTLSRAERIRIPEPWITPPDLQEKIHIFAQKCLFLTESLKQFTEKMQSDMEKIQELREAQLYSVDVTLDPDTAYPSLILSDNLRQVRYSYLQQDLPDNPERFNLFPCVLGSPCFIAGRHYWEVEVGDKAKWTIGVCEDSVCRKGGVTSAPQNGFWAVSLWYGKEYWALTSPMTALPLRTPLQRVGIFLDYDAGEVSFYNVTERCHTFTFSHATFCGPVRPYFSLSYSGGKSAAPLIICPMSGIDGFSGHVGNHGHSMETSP
B5: Emerin (Homo sapiens), P50402 (parent)
chain: B1 chain
partner: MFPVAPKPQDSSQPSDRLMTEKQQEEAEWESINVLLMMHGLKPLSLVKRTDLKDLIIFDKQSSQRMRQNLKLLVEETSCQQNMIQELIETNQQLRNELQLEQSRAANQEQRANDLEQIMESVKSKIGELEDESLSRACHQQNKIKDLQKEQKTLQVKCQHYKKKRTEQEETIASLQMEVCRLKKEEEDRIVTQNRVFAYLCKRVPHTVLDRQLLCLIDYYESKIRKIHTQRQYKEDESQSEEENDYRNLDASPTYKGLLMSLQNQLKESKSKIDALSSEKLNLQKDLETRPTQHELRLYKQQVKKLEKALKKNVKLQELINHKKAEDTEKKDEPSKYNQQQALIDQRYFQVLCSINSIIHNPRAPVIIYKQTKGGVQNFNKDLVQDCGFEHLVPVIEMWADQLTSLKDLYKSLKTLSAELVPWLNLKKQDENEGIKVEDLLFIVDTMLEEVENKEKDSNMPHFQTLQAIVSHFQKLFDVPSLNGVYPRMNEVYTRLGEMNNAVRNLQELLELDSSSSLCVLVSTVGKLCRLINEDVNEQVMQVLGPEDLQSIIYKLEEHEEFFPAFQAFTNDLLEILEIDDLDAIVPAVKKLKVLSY
B6: EF-hand domain-containing protein 1 (Homo sapiens), Q5JVL4 (parent)
chain: MVSNPVHGLPFLPGTSFKDSTKTAFHRSQTLSYRNGYAIVRRPTVGIGGDRLQFNQLSQAELDELASKAPVLTYGQPKQAPPADFIPAHVAFDKKVLKFDAYFQEDVPMSTEEQYRIRQVNIYYYLEDDSMSVIEPVVENSGILQGKLIKRQRLAKNDRGDHYHWKDLNRGINITIYGKTFRVVDCDQFTQVFLESQGIELNPPEKMALDPYTELRKQPLRKYVTPSDFDQLKQFLTFDKQVLRFYAIWDDTDSMYGECRTYIIHYYLMDDTVEIREVHERNDGRDPFPLLMNRQRVPKVLVENAKNFPQCVLEISDQEVLEWYTAKDFIVGKSLTILGRTFFIYDCDPFTRRYYKEKFGITDLPRIDVSKREPPPVKQELPPYNGFGLVEDSAQNCFALIPKAPKKDVIKMLVNDNKVLRYLAVLESPIPEDKDRRFVFSYFLATDMISIFEPPVRNSGIIGGKYLGRTKVVKPYSTVDNPVYYGPSDFFIGAVIEVFGHRFIILDTDEYVLKYMESNAAQYSPEALASIQNHVRKREAPAPEAESKQTEKDPGVQELEALIDTIQKQLKDHSCKDNIREAFQIYDKEASGYVDRDMFFKICESLNVPVDDSLVKELIRMCSHGEGKINYYNFVRAFSN
partner: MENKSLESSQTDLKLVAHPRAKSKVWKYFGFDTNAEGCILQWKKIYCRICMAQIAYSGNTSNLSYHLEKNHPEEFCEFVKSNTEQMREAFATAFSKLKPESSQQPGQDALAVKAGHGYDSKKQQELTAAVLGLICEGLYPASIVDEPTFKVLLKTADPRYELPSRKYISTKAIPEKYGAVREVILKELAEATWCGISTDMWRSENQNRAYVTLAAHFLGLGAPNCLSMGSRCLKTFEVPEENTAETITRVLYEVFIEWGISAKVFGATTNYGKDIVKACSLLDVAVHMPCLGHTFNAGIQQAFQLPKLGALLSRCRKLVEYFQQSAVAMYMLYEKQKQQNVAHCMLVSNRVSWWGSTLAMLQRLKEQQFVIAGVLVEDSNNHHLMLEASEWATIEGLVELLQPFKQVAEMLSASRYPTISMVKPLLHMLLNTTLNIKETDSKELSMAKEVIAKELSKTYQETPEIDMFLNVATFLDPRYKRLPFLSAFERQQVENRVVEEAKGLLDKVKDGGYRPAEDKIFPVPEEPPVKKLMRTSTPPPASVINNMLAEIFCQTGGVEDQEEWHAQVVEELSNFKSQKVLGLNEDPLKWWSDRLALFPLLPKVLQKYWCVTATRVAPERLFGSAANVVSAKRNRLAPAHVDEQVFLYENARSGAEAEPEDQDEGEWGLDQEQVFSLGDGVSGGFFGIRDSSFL
B7: Emerin (Homo sapiens), P50402 (parent)
chain: B1 chain
partner: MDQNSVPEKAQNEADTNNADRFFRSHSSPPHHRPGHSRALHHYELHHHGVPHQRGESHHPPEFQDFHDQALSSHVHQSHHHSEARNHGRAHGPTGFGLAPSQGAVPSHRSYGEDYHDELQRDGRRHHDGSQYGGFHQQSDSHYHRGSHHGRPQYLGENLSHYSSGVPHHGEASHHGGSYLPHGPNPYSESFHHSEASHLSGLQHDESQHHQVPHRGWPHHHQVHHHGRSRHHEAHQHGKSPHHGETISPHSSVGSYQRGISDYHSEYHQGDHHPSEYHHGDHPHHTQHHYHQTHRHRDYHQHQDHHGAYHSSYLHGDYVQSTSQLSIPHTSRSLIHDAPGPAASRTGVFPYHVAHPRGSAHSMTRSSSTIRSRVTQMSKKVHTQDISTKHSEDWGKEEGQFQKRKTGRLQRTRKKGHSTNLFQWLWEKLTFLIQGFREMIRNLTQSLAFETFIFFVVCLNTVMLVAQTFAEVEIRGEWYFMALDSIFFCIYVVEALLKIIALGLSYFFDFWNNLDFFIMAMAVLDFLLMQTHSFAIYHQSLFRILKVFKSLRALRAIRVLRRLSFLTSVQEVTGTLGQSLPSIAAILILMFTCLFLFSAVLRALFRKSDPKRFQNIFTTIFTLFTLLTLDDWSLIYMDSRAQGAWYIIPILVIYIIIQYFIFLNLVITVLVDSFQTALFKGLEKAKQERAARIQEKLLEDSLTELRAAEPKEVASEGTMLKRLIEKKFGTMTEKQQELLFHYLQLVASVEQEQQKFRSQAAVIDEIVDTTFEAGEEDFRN

Variants of: B1
Conditions: with zn165_human ZNF165, P49910

| Variant | effect of a mutation on the interaction |
| --- | --- |
| S54F | with no effect |
| D72V | with no effect |
| P183H | with no effect |
| P183T | with no effect |

Variants of: B2
Conditions: with iho1_human IHO1, Q8IYA8

| Variant | effect of a mutation on the interaction |
| --- | --- |
| F72L | with no effect |
| R202H | with no effect |

Variants of: B3
Conditions: with rby1f_human RBMY1F

| Variant | effect of a mutation on the interaction |
| --- | --- |
| L107V | with no effect |

Variants of: B4
Conditions: with tri27_human TRIM27, P14373

| Variant | effect of a mutation on the interaction |
| --- | --- |
| W94R | disrupting interaction strength |

Variants of: B5
Conditions: with cep70_human CEP70, Q8NHQ1

| Variant | effect of a mutation on the interaction |
| --- | --- |
| P183T | with no effect |
| P183H | with no effect |
| D72V | with no effect |
| S54F | with no effect |

Variants of: B6
Conditions: with zbed1_human ZBED1, O96006

| Variant | effect of a mutation on the interaction |
| --- | --- |
| R221H | disrupting interaction strength |
| A394S | disrupting interaction strength |
| M448T | with no effect |
| T508R | disrupting interaction strength |
| R159W | with no effect |
| P77T | disrupting interaction strength |

Variants of: B7
Conditions: with ctsr1_human CATSPER1, Q8NEC5

| Variant | effect of a mutation on the interaction |
| --- | --- |
| D72V | with no effect |
| S54F | with no effect |
| P183H | with no effect |
| P183T | with no effect |

From IntAct's records for PubMed 25910212
